Source: the supplement of paper PMC10567573

B1: SNX8 (parent)
chain: RMVPALPPKRMLGADREFIEARRR

Variants of: B1
Experiment: protein stability index of a GFP-peptide fusion (GPS, HEK-293T) (PSI 1-6); higher = more stable
Conditions: c terminus: a fixed tail appended
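Further: lentivirally expressed fusions sorted by FACS into six bins by GFP to DsRed ratio, PSI derived from sequencing read proportions per bin multiplied by bin number.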

Protein stability index, by site and new letter:
L12: W 4.05 | Y 3.73
G13: A 2.81 | C 2.17 | D 3.79 | E 3.57 | F 2.22 | H 3.37 | I 2.79 | K 3.72 | L 2.69 | M 2.43 | N 3.29 | P 2.83 | Q 3.25 | R 4.06 | S 3.54 | T 3.14 | V 2.54 | W 2.17 | Y 3.13
A14: C 3.52 | D 4.19 | E 4.34 | F 3.37 | G 3.96 | H 3.71 | I 3.54 | K 3.84 | L 3.55 | M 3.24 | N 4.72 | P 4 | Q 3.81 | R 3.73 | S 3.9 | T 3.63 | V 3.02 | W 2.51 | Y 2.88
D15: A 2.77 | C 2.42 | E 3.52 | F 1.99 | G 3.98 | H 3.22 | I 1.91 | K 3.16 | L 1.52 | M 1.56 | N 3.43 | P 4.16 | Q 3.93 | S 3.77 | T 3.69 | V 2.15 | W 2.5 | Y 2.64
R16: A 4.04 | C 3.53 | D 4.07 | E 4.41 | F 1.96 | G 3.88 | H 3.67 | I 2.78 | K 3.71 | L 2.65 | M 3.55 | N 4.39 | P 4.33 | S 3.91 | T 3.56 | V 3.62 | W 2.42 | Y 2.08
E17: A 3.55 | C 3.61 | D 3.67 | F 2.08 | G 3.97 | H 3.45 | I 2.64 | K 4.19 | L 3.37 | M 2.38 | N 4 | P 4.09 | Q 3.34 | R 4.1 | S 3.87 | T 3.55 | V 2.81 | W 2.19 | Y 3.21
F18: A 3.56 | C 4.45 | D 4.08 | E 4.43 | G 4.57 | H 4.18 | I 3.85 | K 4.26 | L 3.84 | M 3.78 | N 4.45 | P 4.64 | Q 4.46 | R 4.52 | S 4.38 | T 4.2 | V 4.12 | W 3.75 | Y 4.07
I19: A 4.23 | C 3.36 | D 4.41 | E 4.11 | F 3.61 | G 3.96 | H 3.35 | K 4.26 | L 3.06 | M 3.55 | N 3.73 | P 4.65 | Q 4.29 | R 4.16 | S 3.43 | T 4.39 | V 4.09 | W 3.82 | Y 3.98
E20: A 3.51 | C 4.06 | D 4.31 | F 3.12 | G 4.02 | H 3.98 | I 3.27 | K 3.94 | L 3.9 | M 3.39 | N 4.12 | P 4.24 | Q 4.01 | R 4.28 | S 4 | T 3.99 | V 4.11 | W 3.26 | Y 3.68
A21: C 4.08 | D 3.83 | E 3.43 | F 3.31 | G 4.32 | H 4.32 | I 3.34 | K 4.19 | L 4.1 | M 3.04 | N 4.52 | P 3.88 | Q 3.61 | R 3.56 | S 3.12
